In patent US20100196395A1 (Boehringer Ingelheim, published 2010):

Assays:
[1] = target: T1, biotinylated IGF-1 (UniProt P05019 49-118, biotinylated (site not stated)); test: competition ELISA: antibody blocks binding of biotinylated IGF-1 to coated IGF-1R, fluorescence readout
T1 construct: also called IGF-1 ligand
Method: To identify IGF antibodies that neutralize the ability of IGF-1 and IGF-2 to bind to the IGF-1R, an ELISA is established by coating plates with 1.5 μg/ml recombinant human IGF-1R (R&D Systems) which allows the binding of biotinylated IGF-1 and biotinylated IGF-2. Bound IGF-1 or IGF-2 is detected using alkaline phosphatase-conjugated streptavidin (1:10,000 dilution) (Roche). […] Antibody Fab fragments that block the binding of biotinylated ligand are identified by a reduction in fluorometric signal.

[2] = target: T1, biotinylated IGF-1; test: competition ELISA: antibody titrated against biotinylated IGF-1 binding to coated IGF-1R; antibody 40183; mass concentration
[3] = target: T2, murine IGF-2 (murine, UniProt P09535 25-91); test: ELISA titration of the IgG1 on coated murine IGF-2, OD 450
T2 construct: bought reagent; also called mouse IGF-2

[4] = target: T3, rat IGF-1 (rat, UniProt P08025 49-118); test: ELISA titration of the IgG1 on coated rat IGF-1, OD 450
T3 construct: bought reagent

[5] = target: T4, rat IGF-2 (rat, UniProt P01346 25-91); test: ELISA titration of the IgG1 on coated rat IGF-2, OD 450
T4 construct: bought reagent

[6] = target: T5, murine IGF-1 (murine, UniProt P05017 49-118); test: ELISA titration of the IgG1 on coated murine IGF-1, OD 450
T5 construct: bought reagent; also called mouse IGF-1

[7] = target: recombinant human insulin (human, UniProt P01308 25-54; P01308 90-110); test: ELISA titration of the IgG1 on coated human insulin, OD 450
[8] = target: T6, recombinant human IGF-2 (human, UniProt P01344 25-91); test: ELISA titration of the IgG1 on coated human IGF-2, OD 450
T6 construct: mature; also called insulin-like growth factor-2

[9] = target: T1, biotinylated IGF-1; test: competition ELISA: antibody titrated against biotinylated IGF-1 binding to coated IGF-1R; antibody 40186; mass concentration
[10] = target: T6, recombinant human IGF-2; test: SPR (Biacore), IGF coating method, bivalent antibody injected (avidity)
Method: (§1) Affinity constants are also determined for binding of the IGF antibodies to human IGF-1 and IGF-2 using a method where the IGF ligands are coated to the Biacore sensor chip and a range of antibody concentrations injected. The approximately 30-50-fold increase in the binding constants using this method compared with the initial antibody capture method is likely due to an avidity effect where both antibody binding domains interact with an IGF molecule.

[11] = target: T7, recombinant human IGF-1 (human, UniProt P05019 49-118); test: as above
T7 construct: mature; also called insulin-like growth factor-1
Method: as §1

[12] = target: T7, recombinant human IGF-1; test: SPR (Biacore), IGF coating method, bivalent antibody injected (avidity); IGF coated on the chip, bivalent antibody injected (avidity)
[13] = target: T6, recombinant human IGF-2; test: SPR (Biacore), antibody capture method, IGF antigen injected
Method: (§2) The sensor chip is coated with approximately 1000 RU of the reference antibody in flow cell 1 and approximately 1000 RU of a rabbit-anti-human Fc-gamma-specific antibody in flow cell 2 using the coupling reagents from an amine coupling kit. A target of 1000 RU is set in the surface preparation wizard of the Biacore 3000 software at a flow rate of 5 μl/min. Running buffer used is HBS-EP. […] The IGF antigens are diluted to 500, 250, 125, 62.5 and 31.3 nM in running buffer (HCB) and the different antigen dilutions are run singly over Fc1 and Fc2 with random order. Blank runs using running buffer only are run in-between. A blank run curve is subtracted from each binding curve before affinity analysis. Data evaluation is performed using the BIAevaluation software (version 4.1, Biacore, Freiburg, Germany). The dissociation and association phases of the kinetics are fitted separately. For the separate fit of the kdiss values a time-frame of the initial 200-300 seconds in the dissociation phase is used (range of steady decrease of signal). For the separate fit of the kₐₛₛ values, initial time frames of approx 100 seconds are used (range of steady increase of signal) and for calculation the individual kdiss values are used with the 1:1 Langmuir association model. The average values with the standard deviations of the kinetic data together with the corresponding dissociation (KD) and association (KA) constants are calculated.
(§3) The analysis is initially performed by capturing the IGF antibodies on the sensor chip and injecting a range of antigen concentrations, thereby eliminating the possibility of an avidity effect.

[14] = target: T2, murine IGF-2; test: as above
Method: as §2, §3

[15] = target: T7, recombinant human IGF-1; test: as above
Method: as §2, §3

[16] = target: T4, rat IGF-2; test: as above
Method: as §2, §3

[17] = target: T3, rat IGF-1; test: as above
Method: as §2, §3

[18] = target: T5, murine IGF-1; test: as above
Method: as §2, §3

T4 sequence (P01346 25-91 limits assumed): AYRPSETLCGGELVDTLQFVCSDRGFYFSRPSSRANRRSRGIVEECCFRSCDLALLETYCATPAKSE
T3 sequence (P08025 49-118 limits assumed): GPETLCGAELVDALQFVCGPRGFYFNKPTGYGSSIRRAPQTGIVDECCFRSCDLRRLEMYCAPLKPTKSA
Sequence of recombinant human insulin (P01308 25-54 limits assumed, chain 1 of 2): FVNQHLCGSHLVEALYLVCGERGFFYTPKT
Sequence of recombinant human insulin (P01308 90-110 limits assumed, chain 2 of 2): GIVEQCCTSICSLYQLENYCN

B1: antibody 40183 (antibody, human IgG1, lambda, V domains shown)
VH: QVELVESGGGLVQPGGSLRLSCAASGFTWSSFAMSWVRQAPGKGLEWVSYISYLGSYTGYADSVKGRFTISRDNSKNTLYLQMNSLRAEDTAVYYCARGTKFDYWGQGTLVTVSS
VL: DIVLTQPPSVSGAPGQRVTISCTGSSSNIGTYDVHWYQQLPGTAPKLLIYSNSKRPSGVPDRFSGSKSGTSASLAITGLQSEDEADYYCSITRVFGGGTKLTVLG
notes: Fully human IgG1 / Ig lambda
[1]
  IC50 (read off the curve): ~3 ng/mL
[2]
  IC50: ~5 ng/mL
[3]
  binding result: binds
[4]
  binding result: binds
[5]
  binding result: binds
[6]
  binding result: binds
[7]
  binding result: no binding (tested: 100 ng/ml)
[8]
  binding result: binds

B2: antibody 40186 (antibody, human IgG1, lambda, V domains shown)
VH: QVELVESGGGLVQPGGSLRLSCAASGFTFSNYWMHWVRQAPGKGLEWVSGISGWSSWTYYADSVKGRFTISRDNSKNTLYLQMNSLRAEDTAVYYCARFGIDAYTKVYFDYWGQGTLVTVSS
VL: DIELTQPPSVSVAPGQTARISCSGDNIPLKYVSWYQQKPGQAPVLVIHDDNKRPSGIPERFSGSNSGNTATLTISGTQAEDEADYYCQSWASTGVVFGGGTKLTVLG
notes: Fully human IgG1 / Ig lambda from the HuCAL Gold library
[1]
  IC50 (read off the curve): ~5 ng/mL
[9]
  IC50: ~5 ng/mL
[10]
  Ka: 1.45e+10 M⁻¹
  Kd: 0.072 nM
  koff: 0.000164 s⁻¹
  kon: 2.26e+06 M⁻¹ s⁻¹
[11]
  Kd: 0.14 nM
  koff: 0.00023 s⁻¹
  kon: 2.1e+06 M⁻¹ s⁻¹
[7]
  binding result: no binding (tested: 100 ng/ml)
[12]
  Ka: 1.22e+10 M⁻¹
[13]
  Ka: 2.86e+08 M⁻¹
  Kd: 3.62 nM
  koff: 0.00362 s⁻¹
  kon: 1.03e+06 M⁻¹ s⁻¹
[14]
  Ka: 1.08e+08 M⁻¹
  Kd: 9.56 nM
  koff: 0.00586 s⁻¹
  kon: 632000 M⁻¹ s⁻¹
[15]
  Ka: 2.16e+08 M⁻¹
  Kd: 4.66 nM
  koff: 0.0027 s⁻¹
  kon: 581000 M⁻¹ s⁻¹
[16]
  Ka: 1.67e+08 M⁻¹
  Kd: 6.49 nM
  koff: 0.00351 s⁻¹
  kon: 602000 M⁻¹ s⁻¹
[17]
  Ka: 3.67e+08 M⁻¹
  Kd: 2.76 nM
  koff: 0.00301 s⁻¹
  kon: 1.1e+06 M⁻¹ s⁻¹
[18]
  Ka: 1.44e+08 M⁻¹
  Kd: 7.1 nM
  koff: 0.00329 s⁻¹
  kon: 466000 M⁻¹ s⁻¹
